# Assay results from article PMC11718236, “The Psu protein of phage satellite P4 inhibits transcription termination factor ρ by forced hyper-oligomerization” (Nature Communications, 2023).
# Substitutions are numbered along the chain they refer to. In names and notes the source's numbering stands.
# B1: phage satellite P4 polarity suppression protein Psu (wild type), purified (natural protein)
# chain: MESTALQQAFDTCQNNKAAWLQRKNELAAAEQEYLRLLSGEGRNVSRLDELRNIIEVRKWQVNQAAGRYIRSHEAVQHISIRDRLNDFMQQHGTALAAALAPELMGYSELTAIARNCAIQRATDALREALLSWLAKGEKINYSAQDSDILTTIGFRPDVASVDDSREKFTPAQNMIFSRKSAQLASRQSV
# notes: polarity suppression protein Psu of phage satellite P4; No tag is told for the purified protein; also called Psu^wt; wt Psu; source: E. coli BL21 RIL, purified (ammonium sulfate precipitation, heparin, MonoQ, MonoS, Superdex 75 SEC)
# B2: Psu R43A variant, purified (natural protein, phage satellite P4)
# chain: B1 chain with R43A
# Key:
# [1] = target: T1, Rho P167L;Psu (polarity suppression protein) (Escherichia coli;phage satellite P4, UniProt P0AG30;P05460 1-419;1-190, P167L|); assay: fluorescence anisotropy; Psu added to pre-formed ρP167L-dC15-rU12-FAM complex; RNA not displaced; ADP-BeF3; 20 mM HEPES pH 7.5, 150 mM KCl, 5% glycerol, 5 mM MgCl2, 0.5 mM TCEP; SBS assays with 10 uM unlabeled dC15 and 2 mM ADP-BeF3; probe 5 uM dC15-FAM or 2 uM rU12-FAM; temperature not stated; conditions: protein: recombinant;recombinant; tags: none;none; chain copies: 6;2; label: FAM (fluorescein); single strand
# [2] = target: T2, Rho (transcription termination factor ρ, wt);Psu (polarity suppression protein) (Escherichia coli;phage satellite P4, UniProt P0AG30;P05460 1-419;1-190, |); assay: fluorescence anisotropy; SBS; IC50 of Psu as inhibitor (very weak inhibition); dC15-blocked PBS; 2 mM ADP-BeF3; 20 mM HEPES pH 7.5, 150 mM KCl, 5% glycerol, 5 mM MgCl2, 0.5 mM TCEP; SBS assays with 10 uM unlabeled dC15 and 2 mM ADP-BeF3; probe 5 uM dC15-FAM or 2 uM rU12-FAM; temperature not stated; conditions: protein: recombinant;recombinant; tags: none;none; chain copies: 6;2; label: FAM (fluorescein); single strand
# [3] = target: T2, Rho (transcription termination factor …); assay: fluorescence anisotropy; PBS; Psu up to 30 uM dimer has no effect; ADP-BeF3; 20 mM HEPES pH 7.5, 150 mM KCl, 5% glycerol, 5 mM MgCl2, 0.5 mM TCEP; SBS assays with 10 uM unlabeled dC15 and 2 mM ADP-BeF3; probe 5 uM dC15-FAM or 2 uM rU12-FAM; temperature not stated; conditions: protein: recombinant;recombinant; tags: none;none; chain copies: 6;2; label: FAM (fluorescein); single strand
# [4] = target: T1, Rho P167L;Psu (polarity suppression …); assay: as above; conditions: protein: recombinant;recombinant; tags: none;none; chain copies: 6;2; label: FAM (fluorescein); single strand
# [5] = target: transcription termination factor ρ (wild type), non-tagged, purified (E. coli, UniProt P0AG30 1-419); assay: cell-based or functional assay
# [6] = target: transcription termination factor ρ P167L variant, non-tagged, purified (E. coli, UniProt P0AG30 1-419, P167L); assay: cell-based or functional assay
# [7] = target: the molecule itself; assay: cryo-EM structure; ρ^P167L-ATPγS-Psu complexes; 10 mM TRIS-HCl pH 8.0, 120 mM KOAc, 5 mM Mg(OAc)2, 5 µM ZnCl2; 1 mM ATPγS; single-particle analysis
binder,measurement,setting,value
UUUUUUUUUUUU (ssRNA) [rU12-FAM],binding result,[1],binds
same,IC50,[2],299 µM
CCCCCCCCCCCCCCC (ssDNA) [dC15-FAM],binding result,[3],binds
same,binding result,[4],binds
B1,"IC50 of Psu for inhibition of rU12-FAM binding at the SBS of ρ^wt (fluorescence anisotropy, with ADP-BeF3 and dC15)",[5],299 µM
same,"IC50 of inhibition of the RNA-stimulated ATPase activity of ρ^wt by Psu (TLC, 1 h, 37 °C)",[5],0.9 µM
same,decrease of the ρ^wt ATPase rate at Psu dimer:ρ hexamer 10:1 and 50:1 (1.3-fold and 1.6-fold),[5],1.6 fold
same,"IC50 of Psu for inhibition of rU12-FAM binding at the SBS of ρ^P167L (fluorescence anisotropy, with ADP-BeF3 and dC15)",[6],2.8 µM
same,"IC50 of inhibition of the RNA-stimulated ATPase activity of ρ^P167L by Psu (TLC, 1 h, 37 °C)",[6],0.8 µM
same,decrease of the ρ^P167L ATPase rate at Psu dimer:ρ hexamer 10:1 and 50:1 (1.5-fold and 4-fold),[6],4 fold
same,stoichiometry N,[7],2
B2,"IC50 of inhibition of the RNA-stimulated ATPase activity of ρ^P167L by Psu^R43A (TLC, 1 h, 37 °C)",[6],12.9 µM
